Reference: patent US20020025510A1, “Screening methods based on superactivated alpha V beta 3 integrin” (priority 2000, published 2002)

Key:
[1] = target: integrin αvβ3 with the wild type β3 subunit, on β3-MCF7 cells (human) (UniProt P06756); test: flow cytometry, β3-MCF7 cells stained with 5 µg/ml LM609, n=11
[2] = target: integrin αvβ3 modified by MT1-MMP, on β3/MT-MCF7 cells (human) (UniProt P06756); test: flow cytometry, β3/MT-MCF7 cells stained with 5 µg/ml LM609, n=11
[3] = target: integrin αvβ3 modified by MT1-MMP, on β3/MT-MCF7 cells (human) (UniProt P06756); test: cell-based or functional assay
β3 integrin subunit = test: Immunoprecipitation and Western blotting of the β3 integrin subunit from surface-biotinylated cells; type: cell-based, human; settings: cells incubated with 50 μM for 48 hours; precipitated with mAb L230; 90 kDa without inhibitor
Procedure: Immunoprecipitation and Western blotting were performed as follows. Confluent cells were surface biotinylated with 0.1 mg/ml of Sulfo-NHS-LC-Biotin (Pierce, Rockford, Ill.). Where indicated, the cells were incubated prior to biotinylation with 50 μM Batimastat for 48 hours in AIM-V medium (GibcoBRL). Cells were solubilized at 10^7/ml in lysis buffer (50 mM n-octyl-(-D-glucopyranoside in 50 mM TBS, pH 7.4/1 mM CaCl2/1 mM MgCl2/1 mM PMSF/10 μg/ml leupeptin/10 μg/ml pepstatin) for one hr on ice. Insoluble material was removed by centrifugation. Supernatants were precleared for two hours at 4° C. with Protein A-Agarose (Calbiochem, La Jolla, Calif.). Precleared supernatants (100-150 μl) were incubated overnight at 4° C. with 3 μg of the indicated antibodies. The immune complexes were collected on Protein A-Agarose 15 μl of a 50% slurry) during a two hour incubation at room temperature. Following washes with washing buffer (50 mM Tris, pH 7.4/0.5 M NaCl/0.1% Tween 20), the beads were treated with 4% SDS in 125 mM Tris, pH 6.8/20% glycerol buffer, and boiled. […]

Sequence of UniProt P06756 (P06756 31-1048 limits assumed, chain 1 of 2): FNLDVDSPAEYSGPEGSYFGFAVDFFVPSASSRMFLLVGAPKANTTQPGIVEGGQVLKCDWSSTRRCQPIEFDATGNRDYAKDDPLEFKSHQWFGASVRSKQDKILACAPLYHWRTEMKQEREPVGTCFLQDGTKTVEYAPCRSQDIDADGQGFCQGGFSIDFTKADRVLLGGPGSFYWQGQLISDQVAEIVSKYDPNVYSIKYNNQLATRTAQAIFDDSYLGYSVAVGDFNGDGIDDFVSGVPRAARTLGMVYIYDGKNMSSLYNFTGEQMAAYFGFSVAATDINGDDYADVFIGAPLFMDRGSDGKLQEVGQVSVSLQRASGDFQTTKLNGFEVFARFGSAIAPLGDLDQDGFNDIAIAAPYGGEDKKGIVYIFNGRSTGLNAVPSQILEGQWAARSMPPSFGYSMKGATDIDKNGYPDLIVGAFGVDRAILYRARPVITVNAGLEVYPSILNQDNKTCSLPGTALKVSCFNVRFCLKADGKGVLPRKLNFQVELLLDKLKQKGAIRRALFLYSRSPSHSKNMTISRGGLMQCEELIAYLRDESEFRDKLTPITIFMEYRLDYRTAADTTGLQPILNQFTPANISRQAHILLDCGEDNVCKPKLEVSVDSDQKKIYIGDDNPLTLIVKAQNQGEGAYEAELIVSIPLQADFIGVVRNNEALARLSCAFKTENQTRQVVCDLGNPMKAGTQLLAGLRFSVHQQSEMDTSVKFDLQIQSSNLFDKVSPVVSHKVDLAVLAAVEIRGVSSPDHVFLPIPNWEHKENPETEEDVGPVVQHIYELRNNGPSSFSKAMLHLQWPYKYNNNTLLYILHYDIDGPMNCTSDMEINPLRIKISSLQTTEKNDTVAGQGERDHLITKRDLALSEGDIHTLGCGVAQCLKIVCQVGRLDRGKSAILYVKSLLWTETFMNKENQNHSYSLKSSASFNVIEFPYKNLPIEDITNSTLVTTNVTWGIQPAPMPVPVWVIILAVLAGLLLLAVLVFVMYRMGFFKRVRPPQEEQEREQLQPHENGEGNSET
Sequence of UniProt P06756 (chain, as listed by the source limits assumed, chain 2 of 2): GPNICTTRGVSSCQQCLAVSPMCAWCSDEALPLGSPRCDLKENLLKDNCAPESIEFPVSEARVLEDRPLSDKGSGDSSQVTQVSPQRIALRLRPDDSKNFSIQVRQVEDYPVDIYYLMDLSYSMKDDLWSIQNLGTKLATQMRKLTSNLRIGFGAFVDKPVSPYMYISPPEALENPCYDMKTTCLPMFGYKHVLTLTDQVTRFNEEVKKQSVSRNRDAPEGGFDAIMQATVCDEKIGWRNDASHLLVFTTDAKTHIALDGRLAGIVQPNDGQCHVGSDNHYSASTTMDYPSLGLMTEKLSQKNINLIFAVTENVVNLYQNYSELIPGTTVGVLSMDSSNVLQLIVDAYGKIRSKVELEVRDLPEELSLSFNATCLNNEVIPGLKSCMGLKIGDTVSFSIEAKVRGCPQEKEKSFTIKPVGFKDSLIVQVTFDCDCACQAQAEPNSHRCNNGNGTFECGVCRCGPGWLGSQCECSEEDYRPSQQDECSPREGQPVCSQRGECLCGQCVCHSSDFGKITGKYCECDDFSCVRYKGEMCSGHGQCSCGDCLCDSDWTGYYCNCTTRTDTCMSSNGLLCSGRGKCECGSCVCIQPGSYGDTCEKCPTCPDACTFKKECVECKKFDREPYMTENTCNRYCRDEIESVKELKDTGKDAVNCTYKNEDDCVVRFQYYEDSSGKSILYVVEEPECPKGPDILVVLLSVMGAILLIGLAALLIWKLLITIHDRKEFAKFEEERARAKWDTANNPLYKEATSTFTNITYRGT

## murine mAb LM609 specific to integrin αvβ3 (antibody)
[1]
  mean fluorescence intensity: 38.7
[2]
  mean fluorescence intensity: 35.5

## vitronectin (from UniProt P04004 20-478) (ligand)
[3]
  cells migrating to the vitronectin-coated membrane undersurface (Transwell, 48 hours): 23300 cells

## CNC(=O)[C@H](Cc1ccccc1)NC(=O)[C@H](CC(C)C)[C@H](CSc1cccs1)C(=O)NO [Batimastat]
β3 integrin subunit
  Apparent molecular mass of the β3 integrin subunit from β3/MT-MCF7 cells: 95 kDa
